According to patent US20190111148A1 (MONASH UNIVERSITY, published 2019):
Blank lines part the entries; values can stand above or below the binder they belong to.

Columns and labels:
human IL-21 [1] = target: T1, human IL-21 (human, UniProt Q9HBE4 25-162, limits assumed); assay: cell-based or functional assay
human IL-21 [2] = target: T1, human IL-21; assay: SPR, immobilised mAb, IL-21 in flow; average of the five wells of Table 6 (unit from Table 6); average with range and SD of the five measurements
Experimental: Surface Plasma Resonance binding kinetics assay were performed on a Bio-rad XPR36 system by the direct amine coupling method. Briefly, a flow of mixture of EDC [N-ethyl-N′-(3-diethylamino-propyl) carbodiimide] and NHS (N-hydroxysuccinimide) was used to activate the cell surface of a GLC sensor chip before 25 μg/ml anti-IL-21 mAb was flowed through, then a shot flow of ethanolamine was used to block the remaining active sites on the cell surface. Afterwards, serial diluted solutions of IL-21 from 0 to 40 nM were flown over the cell surface to bind to the immobilized anti-IL-21 mAb molecules. Binding kinetics were performed at 25° C. with a flow rate of 30 μL/min, association time of 3 min and dissociation time of 6 min. The buffer consisted of Hepes, NaCl, tween20, and 1 mg/mL BSA at pH 7.4. The flow cell regeneration buffer between cycles was 15 mM phosphoric acid. Double references were used to process the sensorgrams. The binding curves were globally fit to the 1:1 Langmuir binding model.

Peptide 2 (P2) = target: T2, Peptide 2 (P2); assay: peptide ELISA: coated peptide, biotinylated 2P2, Streptavidin-HRP/TMB, A450
T2 construct: also called peptide 2 of hIL-21; Peptide 2 (P2, 27aa)
Experimental: (§1) To detect epitopes of 2P2 and 3A3, peptides consisting of different regions of hIL-21 were synthesized commercially and coated on an ELISA plate, followed by blocking of non-specific binding sites with 3% BSA in PBS. Biotinylated 2P2 or 3A3 were then added to the wells and developed with Streptavidin-HRP and TMB substrates.

Peptide 1 (P1, 30aa) = target: T3, Peptide 1 (P1, 30aa); assay: as above
T3 construct: also called peptide 1 of hIL-21
Experimental: as §1

mIL21 = mIL21 (mouse, UniProt Q9ES17); assay: ELISA: coated mIL21, biotinylated 2P2, Streptavidin-HRP/TMB, A450
Peptide 4 of hIL-21 = target: T4, Peptide 4 of hIL-21 (human); assay: ELISA, biotinylated 2P2 on coated peptide
T4 construct: also called P4
T4 peptide: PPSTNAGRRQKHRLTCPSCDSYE
Experimental: as §1

Peptide 5 of hIL-21 = target: T5, Peptide 5 of hIL-21 (human); assay: ELISA, biotinylated 2P2 on coated peptide
T5 construct: also called P5
T5 peptide: PPSTNAGRRQKHRLT
Experimental: as §1

Peptide 3 of hIL-21 = target: T6, Peptide 3 of hIL-21 (human); assay: ELISA: coated Peptide 3, biotinylated 2P2, Streptavidin-HRP/TMB, A450
T6 construct: also called P3
T6 peptide: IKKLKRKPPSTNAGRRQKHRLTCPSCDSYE
Experimental: as §1

human IL-21 [3] = target: T1, human IL-21; assay: SPR (ProtOn XPR36), biotinylated hIL21 immobilised on NLC chip, antibody in flow, triplicates
Experimental: Triplicates SPR measurements were conducted on ProtOn XPR36 (Bio-rad). NLC chips (Bio-rad) were used to immobilise biotinylated hIL21 on ligand channels, followed by flowing through of various concentrations of mouse 2P2 or humanised 2P2.

T1 sequence (Q9HBE4 25-162 limits assumed): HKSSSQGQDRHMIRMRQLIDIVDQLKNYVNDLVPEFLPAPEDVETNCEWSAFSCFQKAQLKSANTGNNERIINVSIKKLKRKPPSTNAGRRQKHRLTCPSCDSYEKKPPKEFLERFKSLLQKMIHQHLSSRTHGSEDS
T3 sequence (peptide, as listed by the source): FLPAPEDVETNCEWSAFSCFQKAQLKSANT
T2 sequence (peptide, as listed by the source): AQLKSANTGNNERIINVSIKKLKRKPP

bioactivity of human IL-21 (proliferation of Ba/F3-hIL-21 R cells, [3H]-thymidine incorporation) (human IL-21 [1]): > 10 fold | hIL-21 mediated human B cell proliferation (CFSE dilution, flow cytometry) (human IL-21 [1]): ~20 fold | hIL-21 mediated human CD8 T cell activation (granzyme B/perforin double positive cells) (human IL-21 [1]): > 10 fold | Kd (human IL-21 [2]): 3.33 nM | binding result (Peptide 2 (P2)): no binding | binding result (Peptide 1 (P1, 30aa)): no binding | binding result (mIL21): no binding | binding result (Peptide 4 of hIL-21): binds | binding result (Peptide 5 of hIL-21): binds | binding result (Peptide 3 of hIL-21): binds | Kd (human IL-21 [3]): 0.0201 nM | koff (human IL-21 [3]): 0.000512 s⁻¹
B1: monoclonal antibody 2P2 (antibody, V domains shown)
VH: EVQLQQSGADLVRSGASVKLSCTASGFNIKDYYIHWVKQRPEQGLELIGWIDPESGDTEYAPKFQVKATMTADTSSNTAYLQLSSLTSEDTAVYYCNDGSGYWGQGTTLTVSS
VL: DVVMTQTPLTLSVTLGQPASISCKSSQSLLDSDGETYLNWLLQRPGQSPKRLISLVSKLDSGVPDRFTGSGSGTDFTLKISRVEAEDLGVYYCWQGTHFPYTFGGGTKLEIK
notes: Mouse monoclonal antibody; it was detected with anti-mouse IgG in ELISA; also called mAb 2P2; m2P2

Kd (human IL-21 [3]): 0.0305 nM | koff (human IL-21 [3]): 0.00037 s⁻¹
B2: humanized 2P2 antibody (antibody, V domains shown)
VH: QVQLVQSGAEVKKPGASVKVSCKASGFNIKDYYIHWVRQAPGQGLELIGWIDPESGDTNYAQKFQVKATMTRDTSISTAYMELSRLRSDDTAVYYCNDGSGYWGQGTTVTVSS
VL: DVVMTQSPLSLPVTLGQPASISCKSSQSLLDSDGETYLNWLQQRPGQSPRRLISLVSKLDSGVPDRFSGSGSGTDFTLKISRVEAEDVGVYYCWQGTHFPYTFGQGTKLEIK
notes: it was detected with anti-human IgG in ELISA; also called h2P2; humanised 2P2
